The values below come from publication doi:10.1101/2024.11.16.623948.

In data set [1] the target is FLAG-Ago1 (Drosophila melanogaster) (UniProt A1Z9J5). Kind of data set: filter binding. The note with it: guide 5' phosphate; RBNS: 20 mM HEPES-KOH pH 7.9, 100 mM KOAc, 3.5 mM Mg(OAc) (magnesium acetate), 0.05% CHAPS, 2 mM DTT, 8% glycerol, BSA, tRNA, 25 C 2 h; filter binding: 25 mM ….
The next data set has as its target T1, PUM2 (human) (UniProt Q8TB72).
T1 sequence: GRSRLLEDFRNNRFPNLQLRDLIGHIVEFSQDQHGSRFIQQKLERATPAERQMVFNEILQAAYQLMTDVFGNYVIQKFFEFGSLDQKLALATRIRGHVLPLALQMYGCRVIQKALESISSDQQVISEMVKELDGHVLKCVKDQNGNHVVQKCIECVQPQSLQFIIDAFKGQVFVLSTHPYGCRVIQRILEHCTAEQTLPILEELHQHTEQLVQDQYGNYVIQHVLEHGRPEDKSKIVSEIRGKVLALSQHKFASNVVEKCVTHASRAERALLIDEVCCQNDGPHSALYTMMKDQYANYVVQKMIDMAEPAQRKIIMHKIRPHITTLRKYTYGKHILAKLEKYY
Kind of data set: RBNS. To be noted: RBNS: 20 mM HEPES-KOH pH 7.9, 100 mM KOAc, 3.5 mM Mg(OAc) (magnesium acetate), 0.05% CHAPS, 2 mM DTT, 8% glycerol, BSA, tRNA, 25 C 2 h; filter binding: 25 mM ….

Sequence of FLAG-Ago1 (Drosophila melanogaster) (A1Z9J5 entry or part of it): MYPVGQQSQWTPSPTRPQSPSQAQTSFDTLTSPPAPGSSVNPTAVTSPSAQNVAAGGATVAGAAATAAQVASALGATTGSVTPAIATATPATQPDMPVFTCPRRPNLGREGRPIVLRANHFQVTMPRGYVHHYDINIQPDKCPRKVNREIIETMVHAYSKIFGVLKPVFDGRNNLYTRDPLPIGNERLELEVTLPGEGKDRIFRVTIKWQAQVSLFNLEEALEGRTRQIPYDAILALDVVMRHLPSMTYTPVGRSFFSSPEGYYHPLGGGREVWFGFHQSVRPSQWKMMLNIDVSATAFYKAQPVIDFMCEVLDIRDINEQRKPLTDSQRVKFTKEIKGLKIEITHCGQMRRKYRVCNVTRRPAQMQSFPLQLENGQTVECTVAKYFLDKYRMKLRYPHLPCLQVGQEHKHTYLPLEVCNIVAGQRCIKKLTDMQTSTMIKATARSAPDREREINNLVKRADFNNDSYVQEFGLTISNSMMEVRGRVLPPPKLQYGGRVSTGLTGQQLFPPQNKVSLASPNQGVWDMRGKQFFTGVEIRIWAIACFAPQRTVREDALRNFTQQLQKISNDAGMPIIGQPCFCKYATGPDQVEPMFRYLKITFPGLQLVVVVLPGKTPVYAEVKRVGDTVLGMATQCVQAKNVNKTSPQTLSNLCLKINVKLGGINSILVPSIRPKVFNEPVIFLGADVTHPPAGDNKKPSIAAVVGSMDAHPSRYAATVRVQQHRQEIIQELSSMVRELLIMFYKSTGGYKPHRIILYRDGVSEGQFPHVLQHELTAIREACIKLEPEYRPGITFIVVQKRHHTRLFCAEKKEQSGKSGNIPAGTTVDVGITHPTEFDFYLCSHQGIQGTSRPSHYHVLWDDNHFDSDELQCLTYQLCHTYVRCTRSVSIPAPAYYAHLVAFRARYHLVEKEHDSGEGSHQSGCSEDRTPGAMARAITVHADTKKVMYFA

As a reminder, the Kd is the constant that tells how readily two partners part at equilibrium. For “UGAGGUAGUAGGUUGUAUAGU / AAAAAAAAAAAAUCUACCUCU [let-7 / seed-matching target]”, the Kd in data set [1] stood at 5 pM.

“UGAGGUAGUAGGUUGUAUAGU / ACUAUACAACCUACUACCUCA [let-7 / fully complementary target]”: in data set [1], the Kd was 2 pM.

UGUAUAUA [PUM consensus site] showed a Kd with PUM2 (human) of 320 pM.
